B1: HDV Ribozyme (parent)
chain: GGCCGGCAUGGUCCCAGCCUCCUCGCUGGCGCCGGCUGGGCAACAUUCCGAGGGGACCGUCCCCUCGGUAAUGGCGAAUGGGACCCA

Variants of: B1
Test: self-cleavage, relative activity (ratio to wild type); higher = more cleavage; co-transcriptional
With C62A U69G the self-cleavage was 1.03.
C62A U69C showed a self-cleavage of 0.882.
C62A U69A gave a self-cleavage of 0.997.
For C61G U79C, the self-cleavage was 0.499.
C61G U79A gave a self-cleavage of 0.739.
With C61U U79A the self-cleavage was 0.88.
For C62U C66G, the self-cleavage was 0.746.
C62U C66A gave a self-cleavage of 0.815.
C61U A77U gave a self-cleavage of 0.475.
With C62A G73C the self-cleavage was 0.465.
C62A G73A showed a self-cleavage of 0.545.
C62A C63U showed a self-cleavage of 0.831.
Variant C62G U69C has a self-cleavage of 0.534.
With C62G A71C the self-cleavage was 0.443.
With C62G A71U the self-cleavage was 0.489.
C62G G80A gave a self-cleavage of 0.185.
With C62G G80U the self-cleavage was 0.185.
Work on C61G C86A yielded a self-cleavage of 1.03.
C61G A87G gave a self-cleavage of 0.994.
For C61G A87U, the self-cleavage was 0.943.
Variant C62G G68C has a self-cleavage of 0.196.
With C62A G80A the self-cleavage was 0.282.
In the case of C62A G80C, the self-cleavage is reported as 0.0594.
With C62A C85A the self-cleavage was 0.767.
Work on C62A G76A yielded a self-cleavage of 1.13.
Work on C62G G73U yielded a self-cleavage of 0.193.
In the case of C62A A87U, the self-cleavage is reported as 0.984.
Work on C62G G82A yielded a self-cleavage of 0.267.
C62G G74A gave a self-cleavage of 0.402.
In the case of C62G G74C, the self-cleavage is reported as 0.172.
With C62G G74U the self-cleavage was 0.372.
Variant C61U A83G has a self-cleavage of 0.692.
For C61U A70C, the self-cleavage was 0.892.
Work on C61U A70G yielded a self-cleavage of 1.01.
Variant C62G A87G has a self-cleavage of 0.716.
With C61G A77C the self-cleavage was 0.203.
C61G A77G gave a self-cleavage of 0.831.
Variant C61U C63G has a self-cleavage of 0.243.
Variant C61U C63A has a self-cleavage of 0.758.
C61U gave a self-cleavage of 1.01.
C61G gave a self-cleavage of 0.986.
In the case of C61G U72C, the self-cleavage is reported as 0.401.
In the case of C61G U72G, the self-cleavage is reported as 0.332.
In the case of C61G U72A, the self-cleavage is reported as 0.457.
C62G C66G showed a self-cleavage of 0.249.
For C62G C63A, the self-cleavage was 0.639.
For C62G C63U, the self-cleavage was 0.604.
With C62G C63G the self-cleavage was 0.706.
C61G G81U showed a self-cleavage of 0.358.
Variant C62A U65G has a self-cleavage of 0.359.
With C62U A77U the self-cleavage was 0.429.
With C61G C62G the self-cleavage was 1.05.
In the case of C62G A70G, the self-cleavage is reported as 0.578.
Work on C62G A70C yielded a self-cleavage of 0.554.
With C62U A87U the self-cleavage was 1.08.
Work on C61G G68A yielded a self-cleavage of 1.02.
With C62A C75A the self-cleavage was 0.0314.
C61U G74U showed a self-cleavage of 0.554.
With C61G G74U the self-cleavage was 0.466.
C62A G67C showed a self-cleavage of 0.78.
With C62A G67U the self-cleavage was 0.464.
Work on C62A G67A yielded a self-cleavage of 0.578.
For C61U G80C, the self-cleavage was 0.115.
For C61G G80A, the self-cleavage was 0.434.
C62U C64A gave a self-cleavage of 0.845.
Variant C62U C64G has a self-cleavage of 0.482.
Work on C62U C64U yielded a self-cleavage of 0.796.
Work on C61U U72A yielded a self-cleavage of 0.703.
C61U U72C gave a self-cleavage of 0.356.
In the case of C61U A78C, the self-cleavage is reported as 0.182.
For C62G U72C, the self-cleavage was 0.525.
For C62G U72G, the self-cleavage was 0.277.
Variant C62G U72A has a self-cleavage of 0.467.
Variant C61U G76C has a self-cleavage of 1.05.
With C61U G76A the self-cleavage was 1.19.
Work on C61U G76U yielded a self-cleavage of 1.06.
Work on C62A G82A yielded a self-cleavage of 0.35.
C62A G74C showed a self-cleavage of 0.113.
For C61G C75U, the self-cleavage was 0.101.
Variant C62A A83U has a self-cleavage of 0.494.
C62A A83G gave a self-cleavage of 0.683.
C62A C86A showed a self-cleavage of 1.01.
For C61G A70G, the self-cleavage was 0.844.
For C62A G81A, the self-cleavage was 0.332.
In the case of C62A U72G, the self-cleavage is reported as 0.617.
C62A U72A gave a self-cleavage of 0.54.
C62A U72C gave a self-cleavage of 0.38.
With C61U G82C the self-cleavage was 0.281.
Variant C62A C84A has a self-cleavage of 0.862.
C62A C84G gave a self-cleavage of 0.764.
Variant C61U C75U has a self-cleavage of 0.254.
In the case of C61U C75A, the self-cleavage is reported as 0.201.
With C61U C75G the self-cleavage was 0.151.
Work on C61U G68C yielded a self-cleavage of 0.581.
Variant C61U G68U has a self-cleavage of 0.95.
Work on C61U C64A yielded a self-cleavage of 0.89.
For C62G C85G, the self-cleavage was 0.911.
C61G U69A showed a self-cleavage of 0.789.
Work on C61G U69G yielded a self-cleavage of 0.831.
Variant C62U A71C has a self-cleavage of 0.812.
Variant C62U A71G has a self-cleavage of 0.997.
C61G C85A showed a self-cleavage of 0.935.
Work on C61G C85G yielded a self-cleavage of 0.906.
C61G C85U showed a self-cleavage of 1.04.
For C62U C63U, the self-cleavage was 1.11.
For C62U C63G, the self-cleavage was 0.654.
C62U C63A showed a self-cleavage of 0.927.
C62A A78C showed a self-cleavage of 0.101.
For C62A A78G, the self-cleavage was 0.78.
C62A A78U showed a self-cleavage of 0.185.
C61G U65G gave a self-cleavage of 0.72.
In the case of C62A A77U, the self-cleavage is reported as 0.45.
Variant C62A A77G has a self-cleavage of 1.17.
With C62A U79C the self-cleavage was 0.339.
With C62A U79A the self-cleavage was 0.636.
In the case of C62G U65G, the self-cleavage is reported as 0.32.
With C61G G73U the self-cleavage was 0.327.
C61G G73C showed a self-cleavage of 0.264.
C61G C64A gave a self-cleavage of 0.582.
In the case of C61G C64G, the self-cleavage is reported as 0.527.
Work on C61U C85G yielded a self-cleavage of 0.981.
In the case of C61U C85A, the self-cleavage is reported as 1.07.
With C62A C66A the self-cleavage was 0.32.
C62A C66G showed a self-cleavage of 0.623.
In the case of C61G A78C, the self-cleavage is reported as 0.177.
Work on C61G A78U yielded a self-cleavage of 0.219.
With C62A A70U the self-cleavage was 0.955.
For C61U U65G, the self-cleavage was 0.864.
For C61U U65A, the self-cleavage was 0.616.
C61U A71G gave a self-cleavage of 0.997.
Work on C61U A71U yielded a self-cleavage of 1.02.
In the case of C61U C62U, the self-cleavage is reported as 0.644.
Variant C61U C62G has a self-cleavage of 0.694.
Variant C61U C62A has a self-cleavage of 0.978.
Work on C61A U79G yielded a self-cleavage of 1.14.
With C61A U79A the self-cleavage was 0.642.
C61U G73U gave a self-cleavage of 0.383.
C61U G73C gave a self-cleavage of 0.629.
In the case of C62G G81U, the self-cleavage is reported as 0.133.
In the case of C62U A78G, the self-cleavage is reported as 0.475.
With C62G U79A the self-cleavage was 0.489.
For C62G U79G, the self-cleavage was 1.03.
With C62G C75A the self-cleavage was 0.17.
With C62G C75G the self-cleavage was 0.26.
C62U A83G showed a self-cleavage of 0.818.
In the case of C61U U69C, the self-cleavage is reported as 0.972.
In the case of C61U U69A, the self-cleavage is reported as 0.914.
With C62A C64U the self-cleavage was 0.892.
Variant C61G G76C has a self-cleavage of 0.967.
With C61U C86G the self-cleavage was 0.847.
With C61U C86U the self-cleavage was 1.03.
C61G G82C showed a self-cleavage of 0.233.
In the case of C61G G82A, the self-cleavage is reported as 0.284.
Variant C62G C84G has a self-cleavage of 0.482.
For C62G G67C, the self-cleavage was 0.147.
In the case of C61U G81U, the self-cleavage is reported as 0.273.
In the case of C61U G81C, the self-cleavage is reported as 0.29.
In the case of C61U C66A, the self-cleavage is reported as 0.722.
C61G C63A showed a self-cleavage of 0.718.
Variant C61G C63U has a self-cleavage of 1.02.
C61U C84U gave a self-cleavage of 0.636.
C61G A83U showed a self-cleavage of 0.151.
C61G A83C gave a self-cleavage of 0.364.
C61G C66A gave a self-cleavage of 0.674.
In the case of C61G C66G, the self-cleavage is reported as 0.745.
Work on C62G A78G yielded a self-cleavage of 0.745.
Work on C62G A78U yielded a self-cleavage of 0.297.

— the RNAGym collection of RNA variant scans (doi:10.7554/elife.80360)
